# Measurements taken from patent publication US20260055211A1.
# B1: PR3 glycoengineered polypeptide (protein)
# chain: IVGGHEAQPHSRPYMASLQMRGNPGSHFCGGTLIHPSFVLTAAHCLRDIPQRLVNVVLGAHNVRTQEPTQQHFSVAQVFLNNYDAENKLNDVLLIQLSSPANLSASVATVQLPQQDQPVPHGTQCLAMGWGRVGAHDPPAQVLQELNVTVVTAACRPHNICTFVPRRKAGICFGDAGGPLICDGIIQGIDSFVIWGCATRAAPDFFTRVALYVDWIRSTLRRVEAKGRPGGGGANSTAPAPAPAHHHHHHHHHH
# modifications: N-glycans (81.5% A2GalNAc2, biantennary GalNAc-terminated) at the native sites N129 and N174 (numbering of UniProt P24158) and at the Asn of the C-terminal glycotag; 80-90% of molecules fully …
# Assays:
# [1] = biological target: anti-PR3 autoantibodies in PR3+ANCA patient serum; assay: blocking ELISA: 1:100 serum pre-incubated 30 min with 0 to 100 µg/ml m1, c-ANCA ELISA kit; patient samples 1, 7, 24 and 58
# [2] = biological target: anti-PR3 autoantibodies in PR3+ANCA patient serum; assay: depletion with m1-coated magnetic beads (1 mg beads, 1:50 serum, 10 min), flow-through measured by c-ANCA ELISA; five patient sera
# [3] = biological target: anti-PR3 autoantibodies in PR3+ANCA patient serum; assay: blocking ELISA: 1:100 serum pre-incubated 30 min with 0 to 600 µg/ml m1, c-ANCA ELISA kit; 14 out of 15 patient sera of low, medium and high titer
# [4] = biological target: anti-PR3 autoantibodies in PR3+ANCA patient serum; assay: competition ELISA, low-titer serum ANCA 93 (1:100) pre-incubated with the binder, unblocked anti-PR3 IgG on a c-ANCA (PR3) ELISA kit, % of untreated
# [5] = biological target: anti-PR3 autoantibodies in PR3+ANCA patient serum; assay: competition ELISA: serum PR3+ ANCA 1 (1:100) pre-incubated with the binder, unblocked anti-PR3 IgG measured on a c-ANCA (PR3) ELISA kit, % of untreated
# [6] = biological target: anti-PR3 autoantibodies in PR3+ANCA patient serum; assay: competition ELISA, medium-titer serum ANCA 65 (1:100) pre-incubated with the binder, unblocked anti-PR3 IgG on a c-ANCA (PR3) ELISA kit, % of untreated
# [7] = biological target: anti-PR3 autoantibodies in PR3+ANCA patient serum; assay: competition ELISA, medium-titer serum ANCA 97 (1:100) pre-incubated with the binder, unblocked anti-PR3 IgG on a c-ANCA (PR3) ELISA kit, % of untreated
# [8] = biological target: anti-PR3 autoantibodies in PR3+ANCA patient serum; assay: pull-down with binder-coated magnetic beads, serum PR3+ ANCA 4; 100 - (anti-PR3 IgG after binder beads / after control-protein beads x 100), c-ANCA ELISA
# [9] = biological target: anti-PR3 autoantibodies in PR3+ANCA patient serum; assay: pull-down with binder-coated magnetic beads, serum PR3+ ANCA 60; 100 - (anti-PR3 IgG after binder beads / after control-protein beads x 100), c-ANCA ELISA
# [10] = biological target: anti-PR3 autoantibodies in PR3+ANCA patient serum; assay: pull-down with binder-coated magnetic beads, serum PR3+ ANCA 91; 100 - (anti-PR3 IgG after binder beads / after control-protein beads x 100), c-ANCA ELISA
# [11] = biological target: anti-PR3 autoantibodies in PR3+ANCA patient serum; assay: pull-down with binder-coated magnetic beads, serum PR3+ ANCA 93; 100 - (anti-PR3 IgG after binder beads / after control-protein beads x 100), c-ANCA ELISA
# [12] = biological target: anti-PR3 autoantibodies in PR3+ANCA patient serum; assay: pull-down with binder-coated magnetic beads, serum PR3+ ANCA 97; 100 - (anti-PR3 IgG after binder beads / after control-protein beads x 100), c-ANCA ELISA
binder,measurement,setting,value
B1,residual binding percentage (residual autoantibodies against untreated serum),[1],< 50%
same,percentage of depletion of anti-PR3 autoantibodies,[2],> 50%
same,residual binding percentage (residual autoantibodies against untreated serum),[3],< 50%
same,IC50 (read off the curve),[4],0.5 µg/mL
same,IC50 (read off the curve),[5],0.4 µg/mL
same,IC50 (read off the curve),[6],0.4 µg/mL
same,IC50 (read off the curve),[7],0.2 µg/mL
same,% of depletion,[8],81%
same,% of depletion,[9],91%
same,% of depletion,[10],53%
same,% of depletion,[11],88%
same,% of depletion,[12],51%
